In article PMC5679670, “The helicase DinG responds to stress due to DNA double strand breaks” (PLoS ONE, 2017):

Key:
[1] = molecular target: T1, DinGNm (Neisseria meningitidis, UniProt Q9K181); experiment: forked DNA (T1+B1) unwinding, native PAGE; type: biochemical; details: 2 mM nucleotide, 2 mM Mg2+, 400 nM DinG, pH 7.5, 37 °C; read-out is nucleotide-dependent unwinding
T1 construct: gene dinG; full-length gene amplified from MC58 genomic DNA, C-terminal 6xHis tag (pET-28b(+), pSB13), E. coli NiCo21(DE3); Ni-NTA and Resource Q; iron-containing (4 Fe per protein)
T1 sequence (Q9K181 1-716): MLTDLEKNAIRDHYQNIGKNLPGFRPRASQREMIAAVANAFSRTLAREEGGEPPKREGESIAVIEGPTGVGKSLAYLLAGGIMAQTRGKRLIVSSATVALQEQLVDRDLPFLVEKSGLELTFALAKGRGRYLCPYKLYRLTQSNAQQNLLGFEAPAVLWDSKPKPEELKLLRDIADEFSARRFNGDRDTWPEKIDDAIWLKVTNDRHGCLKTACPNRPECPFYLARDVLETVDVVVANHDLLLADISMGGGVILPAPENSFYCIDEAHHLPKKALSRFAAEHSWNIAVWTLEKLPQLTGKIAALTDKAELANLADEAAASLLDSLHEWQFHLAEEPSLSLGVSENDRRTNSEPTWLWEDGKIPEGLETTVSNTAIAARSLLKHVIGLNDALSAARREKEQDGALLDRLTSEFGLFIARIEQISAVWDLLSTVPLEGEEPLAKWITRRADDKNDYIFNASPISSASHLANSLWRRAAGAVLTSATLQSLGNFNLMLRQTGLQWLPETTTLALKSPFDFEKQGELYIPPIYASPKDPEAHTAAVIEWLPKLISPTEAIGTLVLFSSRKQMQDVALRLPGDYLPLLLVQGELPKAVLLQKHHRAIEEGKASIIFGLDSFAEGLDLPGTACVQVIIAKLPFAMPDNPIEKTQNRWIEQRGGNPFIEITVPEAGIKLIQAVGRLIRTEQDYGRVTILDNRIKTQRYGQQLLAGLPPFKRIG

[2] = molecular target: DinGNmK72A (Neisseria meningitidis MC58, UniProt Q9K181 1-716, K72A); experiment: EMSA; protein titration; mutant retained DNA binding affinity; EMSA: 40 mM Tris-HCl pH 8, 2.5 mM EDTA, 2 mM MgCl2, 100 mg/ml BSA (so in the source), 6% glycerol, 2 mM DTT, 0.1 nM 32P-DNA, 15 min on ice; 5% native PAGE in ice bath; details: protein: recombinant; tags: C-terminal 6xHis; label: 32P; single strand
[3] = molecular target: T2, Neisseria meningitidis helicase DinG (DinGNm) (N. meningitidis MC58, UniProt Q9K181 1-716); experiment: MST; SSB proteins labelled (RED-NHS, 20.7 nM), DinG proteins titrated as ligands; 20 mM HEPES pH 7.5, 300 mM NaCl, 0.05% Tween 20, 0.1% Pluronic F-127, 0.1% PEG 8000, 2 mM DTT; 22°C, 20% MST power; details: both partners purified
T2 construct: DinG helicase of Neisseria meningitidis strain MC58, gene amplified from genomic DNA and cloned into pET-28b(+) (plasmid pSB13); also called Nm DinG; DNA damage-inducible protein DinG; source: E. coli NiCo21 (DE3) with pLysS, purified (Ni-NTA, Resource Q ion exchange)
T2 sequence (looked up): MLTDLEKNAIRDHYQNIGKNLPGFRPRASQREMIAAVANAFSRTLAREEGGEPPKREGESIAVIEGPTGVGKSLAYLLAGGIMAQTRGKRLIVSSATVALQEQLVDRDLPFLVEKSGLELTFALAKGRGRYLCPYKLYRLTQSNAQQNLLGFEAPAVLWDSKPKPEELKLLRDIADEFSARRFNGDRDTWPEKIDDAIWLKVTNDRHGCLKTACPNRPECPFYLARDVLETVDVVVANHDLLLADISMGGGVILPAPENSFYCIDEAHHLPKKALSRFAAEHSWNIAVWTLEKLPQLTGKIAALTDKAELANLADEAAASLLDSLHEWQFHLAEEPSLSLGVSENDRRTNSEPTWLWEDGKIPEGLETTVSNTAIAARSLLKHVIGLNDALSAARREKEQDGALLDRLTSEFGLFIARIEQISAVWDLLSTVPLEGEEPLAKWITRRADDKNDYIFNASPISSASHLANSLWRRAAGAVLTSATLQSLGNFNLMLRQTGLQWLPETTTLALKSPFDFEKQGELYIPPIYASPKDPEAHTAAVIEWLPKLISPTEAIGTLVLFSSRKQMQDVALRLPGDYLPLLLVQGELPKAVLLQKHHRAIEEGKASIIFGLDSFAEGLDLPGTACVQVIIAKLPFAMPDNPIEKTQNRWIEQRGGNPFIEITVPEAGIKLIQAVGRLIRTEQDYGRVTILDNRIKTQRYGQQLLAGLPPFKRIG

[4] = molecular target: SSBNmΔ8C (N. meningitidis MC58); experiment: as above

## Nc1ncnc2c1ncn2[C@H]1C[C@H](O)[C@@H](COP(=O)(O)OP(=O)(O)OP(=O)(O)O)O1 [dATP]
[1]
  forked DNA (T1+B1) unwinding, native PAGE: unwinding activity of DinGNm was observed only in the presence of ATP or dATP

B1: poly dT100 (ssDNA)
DNA: TTTTTTTTTTTTTTTTTTTTTTTTTTTTTTTTTTTTTTTTTTTTTTTTTTTTTTTTTTTTTTTTTTTTTTTTTTTTTTTTTTTTTTTTTTTTTTTTTTTT
[2]
  binding result: binds

B2: Neisseria meningitidis single-stranded DNA binding protein (SSBNm) (natural protein, N. meningitidis MC58, UniProt P66848 1-174, looked up)
chain: MSLNKVILIGRLGRDPEVRYMPNGEAVCNFSVATSETWNDRNGQRVERTEWHNITMYRKLAEIAGQYLKKGGLVYLEGRIQSRKYQGKDGIERTAYDIVANEMKMLGGRNENSGGAPYEEGYGQSQEAYQRPAQQSRQPASDAPSHPQEAPAAPRRQPVPAAAPVEDIDDDIPF
modifications: in the MST assay labelled with the Monolith NT Protein Labeling Kit RED-NHS, degree of labelling 0.7
notes: SSB of Neisseria meningitidis, expression vector pEH1; Unlabelled in the ammonium sulphate co-precipitation
[3]
  Kd: 1360 ± 110 nM

B3: Neisseria meningitidis helicase DinG (DinGNm) (enzyme)
chain: MLTDLEKNAIRDHYQNIGKNLPGFRPRASQREMIAAVANAFSRTLAREEGGEPPKREGESIAVIEGPTGVGKSLAYLLAGGIMAQTRGKRLIVSSATVALQEQLVDRDLPFLVEKSGLELTFALAKGRGRYLCPYKLYRLTQSNAQQNLLGFEAPAVLWDSKPKPEELKLLRDIADEFSARRFNGDRDTWPEKIDDAIWLKVTNDRHGCLKTACPNRPECPFYLARDVLETVDVVVANHDLLLADISMGGGVILPAPENSFYCIDEAHHLPKKALSRFAAEHSWNIAVWTLEKLPQLTGKIAALTDKAELANLADEAAASLLDSLHEWQFHLAEEPSLSLGVSENDRRTNSEPTWLWEDGKIPEGLETTVSNTAIAARSLLKHVIGLNDALSAARREKEQDGALLDRLTSEFGLFIARIEQISAVWDLLSTVPLEGEEPLAKWITRRADDKNDYIFNASPISSASHLANSLWRRAAGAVLTSATLQSLGNFNLMLRQTGLQWLPETTTLALKSPFDFEKQGELYIPPIYASPKDPEAHTAAVIEWLPKLISPTEAIGTLVLFSSRKQMQDVALRLPGDYLPLLLVQGELPKAVLLQKHHRAIEEGKASIIFGLDSFAEGLDLPGTACVQVIIAKLPFAMPDNPIEKTQNRWIEQRGGNPFIEITVPEAGIKLIQAVGRLIRTEQDYGRVTILDNRIKTQRYGQQLLAGLPPFKRIG
[4]
  Kd: 3710 nM
